Measurements taken from patent US20030064070A1.

Molecular target: recombinant human TNFα (rhTNF) (human) (UniProt P01375)
Assay: cell-based or functional assay

Sequence of UniProt P01375 (P01375 77-233 limits assumed): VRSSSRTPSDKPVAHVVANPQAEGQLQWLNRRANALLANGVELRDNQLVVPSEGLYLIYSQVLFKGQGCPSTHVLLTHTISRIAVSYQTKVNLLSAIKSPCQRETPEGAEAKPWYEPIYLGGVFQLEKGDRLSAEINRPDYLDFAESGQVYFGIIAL

IL-6 in supernatant of FS-4 fibroblasts, TNF 0.3 ng/ml, antibody 4 µg/ml: 1.6 ng/mL
IL-6 in supernatant of FS-4 fibroblasts, TNF 1.5 ng/ml, antibody 4 µg/ml: 1.96 ng/mL
IL-6 in supernatant of FS-4 fibroblasts, TNF 7.5 ng/ml, antibody 4 µg/ml: 2.16 ng/mL
B1: chimeric mouse/human IgG1 anti-platelet mAb (7E3) (antibody, INN chains, looked up, V domains shown)
VH: EVQLQQSGTVLARPGASVKMSCEASGYTFTNYWMHWVKQRPGQGLEWIGAIYPGNSDTSYIQKFKGKAKLTAVTSTTSVYMELSSLTNEDSAVYYCTLYDGYYVFAYWGQGTLVTVSA
VL: EIVLTQSPVTLSVTPGDSVSLSCRASRDISNNLHWFQQTSHESPRLLIKYASQSMSGIPSRFSGSGSGTDFTLSINSVETEDFGMYFCQQTNSWPYTFGGGTKLEIK
modifications: IgG1
